Results from paper PMC4225485, “The PHD1 finger of KDM5B recognizes unmodified H3K4 during the demethylation of histone H3K4me2/3 by KDM5B” (Protein & Cell, 2014).
Where a chain is given by its changes, count along the chain named.

Experiments:
PHD1KDM5B (306–360 aa) = biological target: T1, PHD1KDM5B (306–360 aa) (Homo sapiens, UniProt Q9UGL1); assay: ITC binding of H3 peptides to PHD1KDM5B
T1 construct: PHDKDM5B (residues 306–360 aa); GST (N, cleaved yes); made in house
T1 sequence (Q9UGL1 306-360): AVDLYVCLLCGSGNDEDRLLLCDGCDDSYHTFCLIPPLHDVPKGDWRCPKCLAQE
Source text: The details of the preparation, purification, crystallization and determination of the PHDKDM5B (residues 306–360 aa) X-ray structure were previously described (Guo et al., [2011]). The modified pGEX-6p-1 vectors expressed proteins with the N-terminal GST tag, which is removable by cleavage with a 3C protease, enabling the use of non-tagged proteins in our studies. Only the X-ray structure of free PHD1KDM5B was obtained.
To study the binding affinities in vitro or to construct different NMR samples of the complex, H3K4 peptides without modifications (with the ARTKQTARKS sequence or […] sequence) or with some modifications (H3R2me1, R2 monomethylation; H3R2me2s, R2 symmetric dimethylation; H3R2me2a, R2 asymmetric dimethylation; H3K4me1/2/3, K4 mono-, di-, and tri-methylation; H3K9me1/2/3, K9 mono-, di- and tri-methylation; H3 peptide A1G, R2A, T3V, K4A, Q5E, T6V mutants without any modification) were purchased from GL Biochem Ltd. (Shanghai, China), and their purity was confirmed by HPLC and mass spectrometry.
To investigate whether the PHD1KDM5B finger and its mutants interact with unmodified or methylated H3K4 or H3K4mutants, the binding affinities of PHD1KDM5B or its mutants to H3 peptides were studied. An ITC-200 microcalorimeter (GE Healthcare) was used with a buffer containing 20 mmol/L Tris, 150 mmol/L NaCl, and 1% Triton X-100, pH 7.5 at 25°C. The reference titration of small molecules in the buffer was subtracted from the experimental data, and the data were fitted using the Origin 7.0 (OriginLab Corporation) software.

[1] = biological target: PHD1 finger of KDM5B (residues 306-360) (UniProt Q9UGL1); assay: ITC; ITC-200, 20 mmol/L Tris, 150 mmol/L NaCl, 1% Triton X-100, pH 7.5, 25°C
[2] = biological target: H3K4 (1-10aa) K4A (Homo sapiens); assay: ITC; settings: domain or fragment; chains chain
[3] = biological target: H3K4 (1-10aa) Q5E (Homo sapiens); assay: ITC; settings: domain or fragment; chains chain
KDM5B-PHD1-Y334A = biological target: T2, KDM5B-PHD1-Y334A (Homo sapiens); assay: ITC
T2 chain: T1 sequence (Q9UGL1 306-360) with Y29A

KDM5B-PHD1-L309A = biological target: T3, KDM5B-PHD1-L309A (Homo sapiens); assay: ITC
T3 chain: T1 sequence (Q9UGL1 306-360) with L4A

KDM5B-PHD1-V311A = biological target: T4, KDM5B-PHD1-V311A (Homo sapiens); assay: ITC
T4 chain: T1 sequence (Q9UGL1 306-360) with V6A

KDM5B-PHD1-D345A = biological target: T5, KDM5B-PHD1-D345A (Homo sapiens); assay: ITC
T5 chain: T1 sequence (Q9UGL1 306-360) with D40A

KDM5B-PHD1-S333A = biological target: T6, KDM5B-PHD1-S333A (Homo sapiens); assay: ITC
T6 chain: T1 sequence (Q9UGL1 306-360) with S28A

KDM5B-PHD1-L324A = biological target: T7, KDM5B-PHD1-L324A (Homo sapiens); assay: ITC
T7 chain: T1 sequence (Q9UGL1 306-360) with L19A

KDM5B-PHD1-D322A = biological target: T8, KDM5B-PHD1-D322A (Homo sapiens); assay: ITC
T8 chain: T1 sequence (Q9UGL1 306-360) with D17A

KDM5B-PHD1-D332A = biological target: T9, KDM5B-PHD1-D332A (Homo sapiens); assay: ITC
T9 chain: T1 sequence (Q9UGL1 306-360) with D27A

[4] = biological target: T10, PHD1 finger of KDM5B (residues 306-360) (UniProt Q9UGL1 306-360); assay: ITC; ITC-200, 20 mmol/L Tris, 150 mmol/L NaCl, 1% Triton X-100, pH 7.5, 25°C; settings: both partners purified
T10 construct: 15N- or 13C/15N-labelled (M9 medium) for the NMR experiments; GST removed with 3C protease; also called PHD1_(KDM5B); PHD_(KDM5B); source: recombinant from modified pGEX-6p-1, purified; preparation described in Guo et al., 2011; not shown: GST, N-terminal, cleaved
T10 sequence (looked up): T1 sequence (Q9UGL1 306-360)

[5] = biological target: T11, PHD1_(KDM5B) Y310F mutant (UniProt Q9UGL1 306-360, Y310F); assay: as above; settings: both partners purified
T11 construct: also called PHD1 Y310F; source: recombinant from modified pGEX-6p-1, site-directed mutagenesis; not shown: GST, N-terminal, cleaved
T11 sequence (looked up): T1 sequence (Q9UGL1 306-360) with Y5F

[6] = biological target: T12, PHD1_(KDM5B) E321A mutant (UniProt Q9UGL1 306-360, E321A); assay: as above; settings: both partners purified
T12 construct: also called PHD1 E321A; source: recombinant from modified pGEX-6p-1, site-directed mutagenesis; not shown: GST, N-terminal, cleaved
T12 sequence (looked up): T1 sequence (Q9UGL1 306-360) with E16A

[7] = biological target: T13, PHD1_(KDM5B) L326A mutant (UniProt Q9UGL1 306-360, L326A); assay: as above; settings: both partners purified
T13 construct: also called PHD1 L326A; source: recombinant from modified pGEX-6p-1, site-directed mutagenesis; not shown: GST, N-terminal, cleaved
T13 sequence (looked up): T1 sequence (Q9UGL1 306-360) with L21A

[8] = biological target: T14, PHD1_(KDM5B) D328A mutant (UniProt Q9UGL1 306-360, D328A); assay: as above; settings: both partners purified
T14 construct: also called PHD1 D328A; source: recombinant from modified pGEX-6p-1, site-directed mutagenesis; not shown: GST, N-terminal, cleaved
T14 sequence (looked up): T1 sequence (Q9UGL1 306-360) with D23A

[9] = biological target: T15, PHD1_(KDM5B) D308A mutant (UniProt Q9UGL1 306-360, D308A); assay: as above; settings: both partners purified
T15 construct: also called PHD1 D308A; source: recombinant from modified pGEX-6p-1, site-directed mutagenesis; not shown: GST, N-terminal, cleaved
T15 sequence (looked up): T1 sequence (Q9UGL1 306-360) with D3A

[10] = biological target: T16, PHD1_(KDM5B) Y310A mutant (UniProt Q9UGL1 306-360, Y310A); assay: as above; settings: both partners purified
T16 construct: also called PHD1 Y310A; source: recombinant from modified pGEX-6p-1, site-directed mutagenesis; not shown: GST, N-terminal, cleaved
T16 sequence (looked up): T1 sequence (Q9UGL1 306-360) with Y5A

[11] = ITC-200, 20 mmol/L Tris, 150 mmol/L NaCl, 1% Triton X-100, pH 7.5, 25°C, H3 peptides residues 1–10, means (± s.d.) of at least three experiments
[12] = Table S1, pH 7.5, 25°C, H3 peptides (1-10aa), N.D. means non-detectable

With `C[C@H](NC(=O)[C@@H](NC(=O)[C@H](CCC(N)=O)NC(=O)[C@H](CCCCN)NC(=O)[C@@H](NC(=O)[C@H](CCCNC(=N)N)NC(=O)CN)[C@@H](C)O)[C@@H](C)O)C(=O)N[C@@H](CCCNC(=N)N)C(=O)N[C@@H](CCCCN)C(=O)N[C@@H](CO)C(=O)O` [H3K4 (1-10aa) A1G] the Kd (PHD1KDM5B (306–360 aa); [11]) was 305 ± 11.7 µM.

In the case of “H3K4 (1-10aa) R2E: unmodified H3 peptide (1-10aa) R2E mutant (AETKQTARKS; UniProt P68431 2-11, looked up, variant R2E)”, the KD (PHD1KDM5B (306–360 aa); [11]) is reported as “too small to detect”.

`C[C@H](N)C(=O)N[C@@H](CCCNC(=N)N)C(=O)N[C@H](C(=O)N[C@@H](C)C(=O)N[C@@H](CCC(N)=O)C(=O)N[C@H](C(=O)N[C@@H](C)C(=O)N[C@@H](CCCNC(=N)N)C(=O)N[C@@H](CCCCN)C(=O)N[C@@H](CO)C(=O)O)[C@@H](C)O)[C@@H](C)O` [H3K4 (1-10aa) K4A] gave a Kd (PHD1KDM5B (306–360 aa); [12]) of 15.9 ± 1.2 µM.

`C[C@H](N)C(=O)N[C@@H](C)C(=O)N[C@H](C(=O)N[C@@H](CCCCN)C(=O)N[C@@H](CCC(N)=O)C(=O)N[C@H](C(=O)N[C@@H](C)C(=O)N[C@@H](CCCNC(=N)N)C(=O)N[C@@H](CCCCN)C(=O)N[C@@H](CO)C(=O)O)[C@@H](C)O)[C@@H](C)O` [H3K4 (1-10aa) R2A] showed a Kd (PHD1KDM5B (306–360 aa); [11]) of 370 ± 52.1 µM.

“H3 peptide A1G mutant (from UniProt P68431 2-11)” gave a Kd [1] of 305 µM.

With `CC(C)[C@H](NC(=O)[C@H](CCCNC(=N)N)NC(=O)[C@H](C)N)C(=O)N[C@@H](CCCCN)C(=O)N[C@@H](CCC(N)=O)C(=O)N[C@H](C(=O)N[C@@H](C)C(=O)N[C@@H](CCCNC(=N)N)C(=O)N[C@@H](CCCCN)C(=O)N[C@@H](CO)C(=O)O)[C@@H](C)O` [H3K4 (1-10aa) T3V] the Kd (PHD1KDM5B (306–360 aa); [11]) was 57.1 ± 2.2 µM.

`C[C@H](N)C(=O)N[C@@H](CCCNC(=N)N)C(=O)N[C@H](C(=O)N[C@@H](CCCCN)C(=O)N[C@@H](CCC(=O)O)C(=O)N[C@H](C(=O)N[C@@H](C)C(=O)N[C@@H](CCCNC(=N)N)C(=O)N[C@@H](CCCCN)C(=O)N[C@@H](CO)C(=O)O)[C@@H](C)O)[C@@H](C)O` [H3K4 (1-10aa) Q5E] showed a Kd (PHD1KDM5B (306–360 aa); [12]) of 21.4 ± 1.7 µM.

In the case of “H3K4 (1-10aa) K4E: unmodified H3 peptide (1-10aa) K4E mutant (ARTEQTARKS; UniProt P68431 2-11, looked up, variant K4E)”, the KD (PHD1KDM5B (306–360 aa); [11]) is reported as “non-detectable”.

Work on “H3 peptide T6V mutant (from UniProt P68431 2-11)” yielded a Kd [1] of 61.3 µM.

Work on `CC(C)[C@H](NC(=O)[C@H](CCC(N)=O)NC(=O)[C@H](CCCCN)NC(=O)[C@@H](NC(=O)[C@H](CCCNC(=N)N)NC(=O)[C@H](C)N)[C@@H](C)O)C(=O)N[C@@H](C)C(=O)N[C@@H](CCCNC(=N)N)C(=O)N[C@@H](CCCCN)C(=O)N[C@@H](CO)C(=O)O` [H3K4 (1-10aa) T6V] yielded a Kd (PHD1KDM5B (306–360 aa); [11]) of 61.3 ± 1.6 µM.

With “H3 peptide R2A mutant (from UniProt P68431 2-11)” the Kd [1] was 370 µM.

“H3 peptide T3V mutant (from UniProt P68431 2-11)” was tested, and the Kd [1] was 57.1 µM.

B1: PHD1 finger of KDM5B (residues 306-360), Q9UGL1 306-360 (protein)
chain: T1 sequence (Q9UGL1 306-360)
B1 showed a Kd [2] of 15.9 µM and a Kd [3] of 21.4 µM.

B2: unmodified H3K4 peptide (residues 1-10) (peptide)
peptide: ARTKQTARKS
notes: histone H3 N-terminal tail, residues 1-10; also called H3K4me0; H3K4me0 peptide; source: synthetic peptide, bought: GL Biochem Ltd. (Shanghai, China)
B2 was tested, and the Kd (KDM5B-PHD1-Y334A) was 12.6 µM, the Kd (KDM5B-PHD1-L309A) was 8.3 µM and the Kd (KDM5B-PHD1-V311A) was 8.2 µM. For the same molecule, the Kd (KDM5B-PHD1-D345A) was 6.7 µM, the Kd (KDM5B-PHD1-S333A) was 12.9 µM and the Kd (KDM5B-PHD1-L324A) was 15.3 µM. It also gave a Kd (KDM5B-PHD1-D322A) of 10.7 µM, a Kd (KDM5B-PHD1-D332A) of 11.3 µM and a Kd [4] of 6.4 µM. The Kd [5] was 4.3 ± 0.2 µM, the Kd [6] was 75.8 ± 5.7 µM and the Kd [7] was 14.1 ± 0.8 µM. It also gave a Kd [8] of 182 ± 21.9 µM, a Kd [9] of 41.7 ± 2.2 µM and a Kd [10] of 28.1 ± 1.3 µM.

B3: tri-methylated H3K4me3 peptide (residues 1-10) (peptide)
peptide: ARTKQTARKS
modifications: trimethyl-lysine at K4
notes: histone H3 N-terminal tail, residues 1-10; source: synthetic peptide, bought: GL Biochem Ltd. (Shanghai, China)
Molecule B3 has a Kd [4] of 104 µM.
